Experimental data from patent US9915657B2, “Lateral flow device for diagnosing microbial infections” (THE JOHNS HOPKINS UNIVERSITY, priority 2009, dated 2018).

Legend:
[1] = rabbit model; within 24 hours of intravenous injection; cited from earlier work
[2] = Competition ELISA, relative affinities of GM-binding MAbs; design: species or system Aspergillus fumigatus
Description: FIG. 9 is a graph showing the relative affinities of GM-binding MAbs. Measurements were made by competition ELISA using soluble ethanol-precipitated culture filtrate. Percent of maximal binding is shown;
The relative affinities of the GM-binding MAbs were determined by competition ELISA. […] The % of maximal binding is shown in (FIG. 9). […] These values are similar to those reported for other polysaccharide-binding MAbs.
Competition ELISAs were done using each combination of the MAb pairs to confirm that the MAbs were binding to the same epitope and their relative avidities for GM. Biotinylation of the second MAb allowed the use of alkaline phosphatase-conjugated streptavidin for detection and was done by linkage of anion exchange-purified MAbs to sulfo-NHS-LC biotin. Competition among each of the MAb pairs was observed, supporting binding to similar epitopes or the presence of steric hindrance. […] The MAb 838-producing hybridoma manufactures relatively low concentrations of MAb, making use of this cell line difficult.

Molecule	GM excreted in the urine [1] [%]	Kd ([2]; calculated from competition ELISA, read-out: dissociation constant (Kd)) [nM]	affinity for GM, higher than the other three MAbs ([2]; competition ELISA)	concentration required for competition, lower than for the other MAbs ([2]; competition ELISA between MAb pairs)
Galactomannan [GM]	35	–	–	–
MAb 838: IgMκ monoclonal antibody to galactofuranose-containing GM; VH SEQ ID NO:7, VL SEQ ID NO:8 (antibody, listed as Mus musculus, V domains shown, (1)..(342) 838.9.4 VH (B4B); (1)..(318) 838.9.4. VL (p6)) VH: EVQLEESLRLSCATSGFTFSDFYMEWVRQPPGKRLEWIAASRNKANDYTTEYSASVKGRFFVSRDTSQSILYLQMNALRAEDTAIYYCARDVMITTGDWYFDVWGAGTTVTVSS VL: DILMTQSQKFMSTSVGDRVSVTCKASQNVGTNVAWYQQKPGQSPKALIYSASYQYSGVPDRFTGSGSGTDFTLTISNVQSEDLAEYFCQQFNSYHVRLGDKVGIKT	–	100	approximately 10 fold	approximately 10 fold
